From patent US20220289806A1 (CYTIMM THERAPEUTICS, published 2022)

Assays:
[1] = target: T1, IL-2Rα in human Fc fusion protein format (ACROBiosystems) (human, UniProt P01589 22-217, limits assumed); experiment: Octet QKe (biolayer interferometry): IL-2Rα-human Fc on AHC sensors, serial dilutions of the IL-2 variant [cont.]
T1 construct: Bought reagent, captured on anti-Human IgG Fc Capture (AHC) sensors; also called CD25; not shown: human Fc
T1 sequence (looked up): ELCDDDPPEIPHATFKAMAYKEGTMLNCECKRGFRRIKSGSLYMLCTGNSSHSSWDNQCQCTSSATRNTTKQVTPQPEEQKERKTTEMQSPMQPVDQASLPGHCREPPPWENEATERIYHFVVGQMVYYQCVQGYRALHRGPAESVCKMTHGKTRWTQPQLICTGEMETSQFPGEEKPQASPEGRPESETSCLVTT
Description: IL-2Rα or IL-2Rβ in human Fc fusion protein format (ACROBiosystems) were captured on anti-Human IgG Fc Capture (AHC) sensors. […] Dissociation was detected following transfer of sensors into wells containing buffer alone. Data were collected and analyzed by Octet User Software. For analysis of the kinetics constants, 1:1 curve fitting model was used.

[2] = target: T2, IL-2Rαβγ on human T cells (human, UniProt P01589 22-272; P14784 27-551; P31785 23-369); experiment: cell-based or functional assay
T2 sequence (looked up) 1: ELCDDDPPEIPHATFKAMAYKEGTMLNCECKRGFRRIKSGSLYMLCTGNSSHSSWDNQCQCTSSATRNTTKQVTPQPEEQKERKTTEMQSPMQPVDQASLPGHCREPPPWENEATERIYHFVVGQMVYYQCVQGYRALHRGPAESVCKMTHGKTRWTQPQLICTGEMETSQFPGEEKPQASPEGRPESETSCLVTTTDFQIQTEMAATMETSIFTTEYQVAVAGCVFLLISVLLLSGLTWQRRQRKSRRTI
T2 sequence (looked up) 2: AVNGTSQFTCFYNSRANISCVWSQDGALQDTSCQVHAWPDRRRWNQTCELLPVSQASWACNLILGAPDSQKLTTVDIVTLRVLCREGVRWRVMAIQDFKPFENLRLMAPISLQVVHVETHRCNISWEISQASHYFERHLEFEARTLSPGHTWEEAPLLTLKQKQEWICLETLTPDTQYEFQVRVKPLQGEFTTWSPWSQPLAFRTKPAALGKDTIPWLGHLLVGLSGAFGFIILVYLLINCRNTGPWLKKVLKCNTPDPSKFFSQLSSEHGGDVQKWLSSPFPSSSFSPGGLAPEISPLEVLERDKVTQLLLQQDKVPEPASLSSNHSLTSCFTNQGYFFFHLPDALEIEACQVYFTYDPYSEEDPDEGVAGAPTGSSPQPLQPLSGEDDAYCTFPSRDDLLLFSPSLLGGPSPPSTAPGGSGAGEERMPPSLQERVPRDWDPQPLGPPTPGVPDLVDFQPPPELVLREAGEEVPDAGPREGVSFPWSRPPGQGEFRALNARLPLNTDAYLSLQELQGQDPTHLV
T2 sequence (looked up) 3: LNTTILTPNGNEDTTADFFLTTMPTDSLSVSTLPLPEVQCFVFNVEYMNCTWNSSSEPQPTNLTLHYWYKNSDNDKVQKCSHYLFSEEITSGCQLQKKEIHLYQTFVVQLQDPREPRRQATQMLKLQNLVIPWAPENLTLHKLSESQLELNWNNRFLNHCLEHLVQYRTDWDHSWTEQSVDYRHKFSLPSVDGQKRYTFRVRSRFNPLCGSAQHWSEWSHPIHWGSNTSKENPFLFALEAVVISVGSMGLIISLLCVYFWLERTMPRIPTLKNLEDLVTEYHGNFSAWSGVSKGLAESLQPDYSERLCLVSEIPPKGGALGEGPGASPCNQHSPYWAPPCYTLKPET

[3] = target: T3, IL-2Rβγ on human CD8+CD45RA+CD25low naïve T cells (human, UniProt P14784 27-551; P31785 23-369); experiment: cell-based or functional assay
T3 sequence (looked up) 1: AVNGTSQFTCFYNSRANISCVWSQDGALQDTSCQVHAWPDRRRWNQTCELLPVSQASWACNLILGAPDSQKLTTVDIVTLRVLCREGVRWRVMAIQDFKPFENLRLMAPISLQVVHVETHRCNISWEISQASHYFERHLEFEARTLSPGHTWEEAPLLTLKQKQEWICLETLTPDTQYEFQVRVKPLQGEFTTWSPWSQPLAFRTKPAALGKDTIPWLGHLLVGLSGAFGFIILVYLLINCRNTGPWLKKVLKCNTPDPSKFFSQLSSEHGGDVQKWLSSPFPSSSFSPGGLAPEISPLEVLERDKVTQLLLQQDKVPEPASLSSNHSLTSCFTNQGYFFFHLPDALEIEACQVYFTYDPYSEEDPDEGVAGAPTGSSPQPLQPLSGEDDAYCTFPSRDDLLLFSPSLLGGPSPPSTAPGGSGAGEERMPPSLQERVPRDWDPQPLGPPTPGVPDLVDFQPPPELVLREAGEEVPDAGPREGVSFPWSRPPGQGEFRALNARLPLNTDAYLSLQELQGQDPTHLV
T3 sequence (looked up) 2: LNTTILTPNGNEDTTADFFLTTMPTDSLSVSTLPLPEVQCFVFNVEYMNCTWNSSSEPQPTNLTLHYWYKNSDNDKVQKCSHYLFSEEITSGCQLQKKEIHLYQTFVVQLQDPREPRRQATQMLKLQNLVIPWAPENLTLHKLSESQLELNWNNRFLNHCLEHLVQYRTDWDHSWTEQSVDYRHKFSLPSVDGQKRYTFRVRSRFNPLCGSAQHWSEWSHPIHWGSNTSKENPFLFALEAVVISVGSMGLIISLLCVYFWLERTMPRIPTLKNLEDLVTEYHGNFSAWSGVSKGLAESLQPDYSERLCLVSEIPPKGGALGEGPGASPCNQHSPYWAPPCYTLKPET

B1: Y31C-PEG20 + F42K (ligand)
chain: APTSSSTKKTQLQLEHLLLDLQMILNGINNCKNPKLTRMLTKKFYMPKKATELKHLQCLEEELKPLEEVLNLAQSKNFHLRPRDLISNINVIVLELKGSETTFMCEYADETATIVEFLNRWITFSQSIISTLT
modifications: maleimide-PEG 20K on Cys 31
notes: rhIL-2 (C125S) background with Y31C and F42K, PEGylated at Cys 31; not shown: His tag
- binding result [1]: no binding (tested: not printed)
- EC50 of STAT5 phosphorylation, CD25+CD4+ T (IL-2Rαβγ) [2]: 1.65 µg/mL
- EC50 of STAT5 phosphorylation, CD25-CD8+ naïve T (IL-2Rβγ) [3]: 1.6 µg/mL
